Assay [1] addresses T1, VEGFR2 on tumor vascular endothelium (frozen sections of human lung cancer specimens) (human, UniProt P35968).
T1 construct: endogenous, on CD31-positive tumor vascular endothelium in frozen tissue sections; also called human tumor vasculature
Description: immunofluorescence on frozen sections of human lung cancer, scFv detected by anti-E tag and rhodamine secondary antibody, CD31 co-staining.

Assay [2] addresses T2, c-Met-Fc control protein (UniProt P08581 25-932, limits assumed).
T2 construct: Bought control protein; also called Met-Fc (R&D); c-Met-Fe; not shown: Fc part of the bought fusion protein; not described
Description: phage ELISA on coated MET-Fc, anti-M13-HRP detection. On the procedure:
The selected phages were further examined by ELISA screening. The 96-well plates were coated with […] of VEGFR2-Fc, Met-Fc (R&D), or BSA (Sigma) protein in 0.1 M sodium bicarbonate overnight at 4° C. After blocking with 1% BSA in PBS (w/v) for 2 hr at room temperature, 70-randomly selected phage clones were added to the plates at a 1:2 dilution in 1% BSA, and incubated for 1 hr at room temperature. Following washes with PBST, the plates were incubated with a 1:2000 dilution of horseradish peroxidase (HRP)-conjugated mouse anti-M13 phage antibody (GE) for 1 hr. After washing with PBST, the colorimetric reaction was developed with the peroxidase substrate ortho-phenylenediamine (OPD; Sigma) plus H₂O₂ for 15 min, and then terminated by the addition of 3 N HCl. The absorbance at 490 nm was determined using a microplate reader (SpectraMax, Molecular Devices). Plasmid DNA of positive clones were isolated and sequenced using the pCANTAB5 sequencing primer set.
(§1) After four rounds of affinity selection (biopanning), the titer of bound phage increased by as much as 3,455-fold (FIG. 1A).
(In general: An ELISA detects its analyte on a solid surface through an enzyme-linked reagent.)

The target of assay [3] is T3, VEGFR2 on the cell surface of human umbilical vein endothelial cells (HUVEC) (human, UniProt P35968 20-1356).
T3 construct: Endogenous receptor of human cells; also called cell-surface VEGFR2; cellular VEGFR2
Put plainly: flow cytometry on HUVECs, 1x10^10 cfu phage, anti-M13 and PE-labelled secondary antibody. The procedure:
About 1×10⁴ HUVEC were incubated with the selected anti-VEGFR2 phage clones at 4° C. for 1 hour in FACS buffer (PBS containing 1% fetal bovine serum). After the cells were washed with FACS buffer, they were first incubated with mouse anti-M13 phage Ab for 1 hr at 4° C., and then with R-phycoerythrin-conjugated goat anti-mouse IgG (Jackson Immuno Research) for 30 min at 4° C. Flow cytometry was performed with a FACSCantoII (BD), and emission fluorescence intensity was measured with FACS Diva software (BD) to quantitatively compare binding affinities.
as §1

Assay [4] concerns the target T4, VEGFR2(del2-3) (human, UniProt P35968 20-813).
T4 construct: Expressed on 293T cells; also called VEGFR2 with domains 2 and 3 deleted
Description: immunofluorescent staining of transfected 293T cells.

The target in assay [5] is T5, VEGFR2(M1) (human, UniProt P35968 20-813).
T5 construct: Expressed on 293T cells; single substitutions derived from the printed replacement of the six-residue stretch; also called VEGFR2-M1 mutant protein
T5 chain: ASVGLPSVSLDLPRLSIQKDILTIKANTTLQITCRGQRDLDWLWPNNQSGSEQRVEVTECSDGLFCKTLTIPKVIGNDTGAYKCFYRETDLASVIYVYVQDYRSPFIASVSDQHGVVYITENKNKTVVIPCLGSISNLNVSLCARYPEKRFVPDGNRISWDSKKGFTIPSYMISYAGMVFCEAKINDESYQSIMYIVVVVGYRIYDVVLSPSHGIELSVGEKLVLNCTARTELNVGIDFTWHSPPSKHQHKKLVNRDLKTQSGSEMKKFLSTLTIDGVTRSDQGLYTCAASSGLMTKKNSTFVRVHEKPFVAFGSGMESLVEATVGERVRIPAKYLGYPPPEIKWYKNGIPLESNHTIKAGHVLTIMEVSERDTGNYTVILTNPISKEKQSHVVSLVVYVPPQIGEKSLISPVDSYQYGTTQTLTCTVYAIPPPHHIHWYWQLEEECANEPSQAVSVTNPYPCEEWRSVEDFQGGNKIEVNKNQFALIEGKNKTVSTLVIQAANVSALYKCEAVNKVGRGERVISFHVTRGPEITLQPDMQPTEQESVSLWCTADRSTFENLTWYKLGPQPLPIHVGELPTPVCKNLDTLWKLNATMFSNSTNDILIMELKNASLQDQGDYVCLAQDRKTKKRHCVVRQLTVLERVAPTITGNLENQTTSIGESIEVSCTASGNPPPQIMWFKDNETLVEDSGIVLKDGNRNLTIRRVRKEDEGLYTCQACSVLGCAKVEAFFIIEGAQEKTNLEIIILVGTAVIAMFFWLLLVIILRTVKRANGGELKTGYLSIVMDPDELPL
The assay is described as above.

Assay [6] addresses T6, VEGFR2(4-7) (human, UniProt P35968 321-813).
T6 construct: also called domains 4-7, Phe321 to Leu813
The assay is described as above.

In assay [7] the target is T7, VEGFR2(M2) (human, UniProt P35968 20-813).
T7 construct: Expressed on 293T cells; single substitutions derived from the printed replacement of the seven-residue stretch
T7 chain: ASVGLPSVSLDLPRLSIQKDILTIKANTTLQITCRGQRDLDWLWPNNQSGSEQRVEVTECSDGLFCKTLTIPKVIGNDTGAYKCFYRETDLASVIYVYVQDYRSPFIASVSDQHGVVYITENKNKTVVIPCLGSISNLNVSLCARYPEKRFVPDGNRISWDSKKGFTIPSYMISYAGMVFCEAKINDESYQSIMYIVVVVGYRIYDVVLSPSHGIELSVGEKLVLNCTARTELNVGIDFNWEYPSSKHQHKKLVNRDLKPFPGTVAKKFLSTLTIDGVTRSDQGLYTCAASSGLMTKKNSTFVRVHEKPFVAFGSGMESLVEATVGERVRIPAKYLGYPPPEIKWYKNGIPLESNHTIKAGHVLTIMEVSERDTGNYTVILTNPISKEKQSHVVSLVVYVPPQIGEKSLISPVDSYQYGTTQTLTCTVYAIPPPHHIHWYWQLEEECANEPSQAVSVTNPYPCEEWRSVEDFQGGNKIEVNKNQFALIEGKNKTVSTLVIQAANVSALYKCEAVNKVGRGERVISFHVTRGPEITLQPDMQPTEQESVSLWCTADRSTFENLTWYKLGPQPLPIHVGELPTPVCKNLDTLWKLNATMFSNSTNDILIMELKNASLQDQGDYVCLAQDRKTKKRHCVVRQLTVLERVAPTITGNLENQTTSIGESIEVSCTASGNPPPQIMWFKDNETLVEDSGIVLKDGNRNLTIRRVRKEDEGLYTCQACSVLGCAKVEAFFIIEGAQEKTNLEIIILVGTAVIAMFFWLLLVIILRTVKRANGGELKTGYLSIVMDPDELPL
The assay is described as above.

The target in assay [8] is T8, VEGFR2(2-7) (human, UniProt P35968 111-813).
T8 construct: also called domains 2-7, Ala111 to Leu813
The assay is described as above.

Assay [9] concerns the target T9, VEGFR2(1-7) (human, UniProt P35968 20-813).
T9 construct: Expressed on 293T cells; also called full-length extracellular region of VEGFR2, domains 1-7, Met1 to Leu813
Described as above.

Assay [10] concerns the target T10, VEGFR2(del3) (human, UniProt P35968 20-813).
T10 construct: Expressed on 293T cells; also called VEGFR2 with domain 3 deleted
The assay is described as above.

T2 sequence (P08581 25-932 limits assumed): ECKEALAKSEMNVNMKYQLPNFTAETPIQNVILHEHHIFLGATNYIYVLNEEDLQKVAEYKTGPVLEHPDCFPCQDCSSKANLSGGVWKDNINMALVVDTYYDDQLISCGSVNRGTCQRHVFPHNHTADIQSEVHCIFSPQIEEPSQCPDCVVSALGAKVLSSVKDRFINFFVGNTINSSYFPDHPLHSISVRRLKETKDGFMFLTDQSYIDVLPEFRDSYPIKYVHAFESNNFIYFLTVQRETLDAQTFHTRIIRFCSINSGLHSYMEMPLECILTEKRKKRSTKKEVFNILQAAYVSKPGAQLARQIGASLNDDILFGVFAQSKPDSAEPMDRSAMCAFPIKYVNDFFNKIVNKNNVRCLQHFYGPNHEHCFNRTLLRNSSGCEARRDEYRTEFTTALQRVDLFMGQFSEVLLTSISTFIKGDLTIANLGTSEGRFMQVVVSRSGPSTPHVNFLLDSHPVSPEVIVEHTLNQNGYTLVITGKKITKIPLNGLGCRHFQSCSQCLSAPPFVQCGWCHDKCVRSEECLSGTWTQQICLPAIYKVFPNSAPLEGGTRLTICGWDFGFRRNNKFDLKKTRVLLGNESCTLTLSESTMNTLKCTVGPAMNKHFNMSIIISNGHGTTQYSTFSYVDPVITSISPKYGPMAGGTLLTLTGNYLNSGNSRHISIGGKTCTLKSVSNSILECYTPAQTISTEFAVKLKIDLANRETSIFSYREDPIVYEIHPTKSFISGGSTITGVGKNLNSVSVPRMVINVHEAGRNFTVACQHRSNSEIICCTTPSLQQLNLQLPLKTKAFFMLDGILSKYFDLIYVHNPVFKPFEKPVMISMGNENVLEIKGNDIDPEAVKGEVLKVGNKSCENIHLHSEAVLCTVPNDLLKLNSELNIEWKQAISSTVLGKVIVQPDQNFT

B1: R2S29 (scFv, V domains shown)
VH: QVQLQQSGAEMKKSGSSVKVSCKASGGNFISKGISWVRQAPGQGLEWMGGIIPLFGTGNYAQKFQGRVTITADESTTTVYLQLTSLTPEDTAMYFCATADVDYSDSLEAFDMWGQGTMVTVSS
VL: DIVMTQSPSSLSASVGDRVTITCRASQSINNYLNWYQQKPGKAPNLLIYGASSLQSGVPSRFRGSGSGTDFTLTISSLQPEDFATYYCQQSYSTPLFGQGTKLEIK
notes: also called soluble anti-VEGFR2 scFv from phage clone R2PC29
For the molecule B1, the binding result in assay [1] is listed as “binds”.

B2: R2PC29 (scFv, V domains shown)
VH: QVQLQQSGAEMKKSGSSVKVSCKASGGNFISKGISWVRQAPGQGLEWMGGIIPLFGTGNYAQKFQGRVTITADESTTTVYLQLTSLTPEDTAMYFCATADVDYSDSLEAFDMWGQGTMVTVSS
VL: DIVMTQSPSSLSASVGDRVTITCRASQSINNYLNWYQQKPGKAPNLLIYGASSLQSGVPSRFRGSGSGTDFTLTISSLQPEDFATYYCQQSYSTPLFGQGTKLEIK
notes: also called anti-VEGFR2 scFv phage clone 29
Take B2: the binding result in assay [2] is listed as “no binding (tested: 1x10^9 cfu)”; in assay [3] it was “binds”.

B3: R2PC28 (scFv, V domains shown)
VH: EVQLVESGGALVQPGGSLRLSCVGSEFTFSHYNLHWVRQAPGKGLEWLAVISDDGRNKYYGDSVKGRFTISRDNSKNTLYLQMNGLRAEDTAVYYCARVPTVWRGGVYDIWGQGTMVTVSS
VL: EIVLTQSPATLSLSPGERATLSCRASQSVGSYLAWYQQRPGQPPRLLIYDASNRATGVAARFSGSGSGTDFTLTIDSLEAEDAATYYCHQSSSLPRTFGQGTKLEIK
notes: also called anti-VEGFR2 scFv phage clone 28
Regarding B3, the binding result is listed as “no binding (tested: 1x10^9 cfu)” in [2] and “binds” in [3].

B4: R2S8 (scFv, V domains shown)
VH: QVQLVQSGGGLVKPGGSLRLSCAASGFTFSSYSMSWVRQAPGKGLEWVSSISSSSSYIYYADSVKGRFTISRDNAKNSLYLQMNSLRAEDTAVYYCARSTDAFDIWGQGTMVTVSS
VL: DIVMTQSPSSLSASVGDRVTITCRASQRISNYLNWYQHKSGEDPKLLIYAASSLQSGVPSRFSGSGSGTDFTLTISSLQPEDFATYYCQQYDRYPPTFGQGTKLEIK
notes: also called soluble anti-VEGFR2 scFv from phage clone R2PC8
With B4, the binding result was “no binding” in [4]; “no binding” in assay [5]; “no binding” in assay [6]; “binds” in assay [7]; “binds” in [8]; “binds” in assay [9]. The binding result is on record as “no binding” in [10] and “binds” in assay [1].

B5: R2PC8 (scFv, V domains shown)
VH: QVQLVQSGGGLVKPGGSLRLSCAASGFTFSSYSMSWVRQAPGKGLEWVSSISSSSSYIYYADSVKGRFTISRDNAKNSLYLQMNSLRAEDTAVYYCARSTDAFDIWGQGTMVTVSS
VL: DIVMTQSPSSLSASVGDRVTITCRASQRISNYLNWYQHKSGEDPKLLIYAASSLQSGVPSRFSGSGSGTDFTLTISSLQPEDFATYYCQQYDRYPPTFGQGTKLEIK
notes: also called anti-VEGFR2 scFv phage clone 8
With B5, the binding result is given as “no binding (tested: 1x10^9 cfu)” in assay [2] and “binds” in assay [3].

B6: R2S12 (scFv, V domains shown)
VH: QVNLRESGGGLVKPGGSLRLSCAASGFTFGSYTMNWVRQAPGKGLEWVASITSGSSYIFYTDSVKGRFTISRDNSRSSLFLQMNSLRAEDTAIYYCARGSASAFDIWGQGTMVTVSS
VL: DIQMTQSPSSLSASVGDRVTITCKASDDIINYLNWYQQKPGEAPKLLIYDASILETGVPSRFSGSGSGTDFTFTISSLQPEDIATYYCQQYDILPLTFGGGTKLEIK
notes: Soluble scFv made in E. coli HB2151 from phage clone R2PC12, with E tag; also called soluble anti-VEGFR2 scFv from phage clone R2PC12
As to B6, the binding result in assay [4] is given as “no binding”; in assay [5], “no binding”; in assay [6], “no binding”; in [7], “binds”; in assay [8], “binds”; in assay [9], “binds”. Moreover, the results for the binding result in assay [10] and in assay [1] were “no binding” and “binds”, respectively.

B7: R2PC12 (scFv, V domains shown)
VH: QVNLRESGGGLVKPGGSLRLSCAASGFTFGSYTMNWVRQAPGKGLEWVASITSGSSYIFYTDSVKGRFTISRDNSRSSLFLQMNSLRAEDTAIYYCARGSASAFDIWGQGTMVTVSS
VL: DIQMTQSPSSLSASVGDRVTITCKASDDIINYLNWYQQKPGEAPKLLIYDASILETGVPSRFSGSGSGTDFTFTISSLQPEDIATYYCQQYDILPLTFGGGTKLEIK
notes: also called anti-VEGFR2 scFv phage clone 12
On to B7, for which the binding result is “no binding (tested: 1x10^9 cfu)” in assay [2] and “binds” in assay [3].

Values taken from patent US20180127504A1 (ACADEMIA SINICA, published 2018).
